B1: XENP25767 (D144N) (protein)
chain 1: EPKSSDKTHTCPPCPAPPVAGPSVFLFPPKPKDTLMISRTPEVTCVVVDVKHEDPEVKFNWYVDGVEVHNAKTKPREEEYNSTYRVVSVLTVLHQDWLNGKEYKCKVSNKALPAPIEKTISKAKGQPREPQVYTLPPSREEMTKNQVSLTCDVSGFYPSDIAVEWESDGQPENNYKTTPPVLDSDGSFFLYSKLTVDKSRWEQGDVFSCSVMHEALHNHYTQKSLSLSPGK
chain 2: SPGQGTQSENSCTHFPGNLPNMLRDLRDAFSRVKTFFQMKDQLDNLLLKESLLEDFKGYLGCQALSEMIQFYLEEVMPQAENQDPDIKAHVNSLGENLKTLRLRLRRCHRFLPCENGGGSGGKSKAVEQVKNAFNKLQEKGIYKAMSEFNIFINYIEAYMTMKIRNEPKSSDKTHTCPPCPAPPVAGPSVFLFPPKPKDTLMISRTPEVTCVVVDVKHEDPEVKFNWYVDGVEVHNAKTKPREEQYNSTYRVVSVLTVLHQDWLNGKEYKCKVSNKALPAPIEKTISKAKGQPREPQVYTLPPSREQMTKNQVKLTCLVKGFYPSDIAVEWESNGQPENNYKTTPPVLDSDGSFFLYSKLTVDKSRWQQGNVFSCSVMHEALHNHYTQKSLSLSPGK
B2: XENP25757 (D41N) (protein)
chain 1: B1 chain 1
chain 2: B1 chain 2 with D41N, N150D
B3: XENP25768 (E151Q) (protein)
chain 1: B1 chain 1
chain 2: B1 chain 2 with N150D, E157Q
B4: XENP25755 (Q38E) (protein)
chain 1: B1 chain 1
chain 2: B1 chain 2 with Q38E, N150D
B5: XENP14246 (WT) (protein)
chain 1: B1 chain 1
chain 2: B1 chain 2 with N150D
B6: XENP25753 (N21D) (protein)
chain 1: B1 chain 1
chain 2: B1 chain 2 with N21D, N150D
B7: XENP25759 (L43V) (protein)
chain 1: B1 chain 1
chain 2: B1 chain 2 with L43V, N150D
B8: XENP25756 (M39T) (protein)
chain 1: B1 chain 1
chain 2: B1 chain 2 with M39T, N150D
B9: XENP25763 (I87A) (protein)
chain 1: B1 chain 1
chain 2: B1 chain 2 with I87A, N150D
B10: XENP25758 (Q42E) (protein)
chain 1: B1 chain 1
chain 2: B1 chain 2 with Q42E, N150D
B11: XENP25760 (D44N) (protein)
chain 1: B1 chain 1
chain 2: B1 chain 2 with D44N, N150D
B12: XENP25754 (D28N) (protein)
chain 1: B1 chain 1
chain 2: B1 chain 2 with D28N, N150D
B13: XENP25761 (N45D) (protein)
chain 1: B1 chain 1
chain 2: B1 chain 2 with N45D, N150D

The source of these data is patent publication US20210171596A1 (published 2021).

Broadly, the Kd is the equilibrium constant for the complex coming apart. Read a low Kd as tighter binding.

Changes are numbered by the printed parent chain. In names and notes the source's numbering stands.

One test deals with T1, IL10R1-Fc (human, UniProt Q13651 22-235).
T1 chain: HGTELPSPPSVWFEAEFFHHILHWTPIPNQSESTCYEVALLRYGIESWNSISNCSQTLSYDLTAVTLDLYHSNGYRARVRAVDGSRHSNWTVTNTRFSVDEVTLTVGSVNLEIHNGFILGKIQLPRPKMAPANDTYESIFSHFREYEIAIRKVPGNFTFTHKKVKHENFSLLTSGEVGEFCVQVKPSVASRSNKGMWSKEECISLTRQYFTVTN
In words: BLI; marked *.
Regarding B1, binding was characterised by a dissociation constant (Kd) of 23.8 nM. On the same count and under the same terms, to B2 belongs 12.4 nM; to B3, 12.4 nM. Molecule B4 registered a Kd of 6.13 nM.

The next test has as its target T1, IL10R1-Fc. In words: BLI.
Take B5: binding was put at a Kd of 5.05 nM. Same read-out and setting: the figure for B6 is 8.14 nM; for B7 it is 16.4 nM; for B8 it is 4.76 nM.

B9 returned an equilibrium dissociation constant (Kd) of 14.4 nM. Still for that read-out and setting: to B10 belongs 7.3 nM; to B11, 1.23 nM; to B12, 3.86 nM. The same measure, in the same setting: the figure for B13 is 10.6 nM.
